Experimental data as given in the domain aggregation screens of Martell et al. (2025).

Test: soluble fraction after stress (log2 fold change); higher = more stays soluble; pooled small domains, quantitative proteomics
Conditions: stress: pH 4
How it was run: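 With high-throughput quantitative proteomics, pooled custom libraries of small protein domains were measured after pH 4 stress. Each domain's soluble amount after the stress gives a fold change taken as aggregation propensity. Higher log2 values mean more of the domain stayed soluble.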

Sequence	soluble fraction (log2)
HMSTRLIGEIGVVTKDLGAGLKENGSIQIGREEWPAETKDMEHIPMGTRVKVIHIEGTRLVVEA	-0.266
HMSTSRAEIIAFLKSNPSSEYKHELETKLDEMDWAEAVKGNSEESFLAYKQRQPNGTHNGEADEKLKVLLV	-0.171
HMSTVISPLPGNIIKVLVPEGKSVKRGDTILTIESMKMENSIKAAYDGVVKKIYVQQAQIVMQGDPLFDL	-1.05
HMSVALSENIKTRRKALKMSQEYVAEQLDISRQAVAKWEAGKSEPTTENLVKLAALFEMSVSELVE	0.35
HMSVDDVALRLEFGPSDAEALAFVHRHGAILSETTDRDTGVVSVHVRLSEADAGRFNQRYGV	-0.233
HMSVDDYLKFSGSGTYWNTQDRGKTYLVNGQQRPLRDKEYLPDVMHRHVIDFITKHRDRPFYIYYSM	-0.0438
HMSVDVEGNQRIPTEQVLSELRDVGVSFGKRVSGLNADTIRNQMIINNDEIAWLGVNVRGSRVYVEITERI	-0.0219
HMSVERIEPPLPLIDTLLALRDALERPLSREENAFLSRRFAGGATRAQIDALAAQFRGAAAAESKV	-0.324
HMSVETSDLLPLIEQVLSLNPDKVKEYQNGKKGLLGFFMGQIKQTAGVAIDVGTLKPLLEDALHKDL	-1.06
HMSVEYRKTLSDGNEYQIVKEKNGYVIKKSLNEGLDYLEPMKNRKYYSSYSQAFKRLNLIAKEVNINEGYD	0.0946
HMSVFGMEIGKTTEAEAGRMYRLNKEQLNPYSGGYQYSVNPKAIDFSGLEQVTLIFDEKKVLVYVQAV	-0.179
HMSVIETLLSDREREVLTHLVNGYDAKRIAEITGISTLTVRKHIANIYTKLHVNSKAQVISMAHKNKWF	-0.773
HMSVIKERLTEFLTYKGIGQIKFAEAAGLSRGFVNVLGDGISSKSLNKISQAFPELNTLWLTTGEGEML	-0.061
HMSVKTIRKTEFAKRLYSLMLEKNWNQSDLARASGMGRDSVSQYIRANNTPSPQNLKKLAEALGVEPVELY	0.0509
HMSVKYLQIYHAIREKILSNEYAINQQLPDEITLTKEFNSSRMTVKKALDLLVSEGLIFRKRGQGTFVLSR	≥ 0.43
HMSVLDEVRKLSFHQRNAVFLFYFEGYSMKEIAQIFHVKEGTVSSWLTRARKQLRKQMEEEVLYDESLP	-0.0883
HMSVLLDDLSPREREILQLVVEGHSSTKIAGMLGLASATVDTYRSRLMAKLHIDNLPDLVRFAIRHGLIS	-0.122
HMSVLLKEEGSLQLARHGAAYFIIYSAQEHPNQRRHLKISEEESNRIMEGTPIEEIFLAYSG	-0.972
HMSVLQGLIESFKAGDRNLYEVAERLNVTEPFLAEALKDYRARFPKGVQVDNFWISFRPYLTIAEV	-0.886
HMSVNEKVRLFRELNQWSQEEMAERMNMSVAGYAKIERGETNISLHKLKQIASVLQIDLLDLVS	-0.867
HMSVPEAAERAIDVAQMRRALGELSPEQQRVLELAYFGGLTRQEIARATGTPLGTVHTRARLGLQNLRARL	-0.0378
HMSVPRVWTDIQGRRVKGDFEGLRGDLVVLRVGGKSYAFPLVRLIASDQAYARSLVAGNPSK	0.22
HMSVPSLVGKTDSEAQSAIKSAGLKVGTVTYQYSDETEKGYVVSQSPYSGNKVNAGSTVNIVVSKGK	0.155
HMSVPSVAAVREQTGLSQVKFASLLGVSVRTLQEWEQGRRAPSGAARTLLMVAAKNPQALLEV	-0.0956
HMSVSVEEDADGRVWVYYQDQKMDITDLFDENGVYGFNLEKGDRTVYVEVTKNADGTYSFTQTD	-1.34

Sequence	soluble fraction (log2)
HMSVTIENQINTYFQTRDKISRDELVALIKKDFANWTDNTINIYVSSLQKRGIIHSLSRGMYALGN	0.22
HMSVTYRLLITSSPGQAEVFLDGKRVGITPFSARLAAGWYQVRVSKEGYNLWEQHVQLREDQRLTATLT	0.229
HMSWAAQVVDKMTNDQLIKSLNEIVNTGKQLGLDITVEQNGDKNFIMTVKDSKGNVQLVTPIG	-0.937
HMSWEQELIEKANEIIDLYPEKRSALGPLLYLAQERDGYISDESIVEISNLVGITEVQVKSVASFYSMYK	-2.88
HMSWNIHEAVEYYKGQDAPQNQFALVELLKEVQEHNGGVLTDIAVEEIAALLNTKVTFLNAVIKRYPSLK	-0.163
HMSYEDLIQAVSGHFGIEIRALLSEDRKKENMIPRQVAMYLLKNKLHYTYERIGNIFSGRNHTAVMYSV	-0.403
HMSYGKVQFVIDAKDAVLSIDGKETDYEKPVKLTYGSHTITVYSSDYDTWKRNLYVNSEKSTVVINLA	-0.0156
HMSYKDIKEASDTGTYRDEENNIDVKWQKLFNGHNEYFDIEAYRDGERVEINNQQADRYIYLIKQEMD	-0.357
HMSYPEIFQSLTEREQKIADMIAEHLSNKEIAEKMFLSEGTIKQYINQIYSKLQITGDIRNKRKQLIELFH	-0.0222
HMSYTPGQWVEASMPNATFFRIVPSGNATADKMLAVATPMKVISTSGTYVKVELDSGDVGFVPEIMV	0.102
HMTAEASELRERIRAAMATLPPAQQRVIELAYFEGLTQREIAALLNEPLGTIKTRMRLGMRKLKDVL	0.367
HMTAIKAGDLVKITGTKYYGGQTIPGWVKNQNWYVQEVSGDRAVINKNESGTNAIMSPIRVSDLTPVS	-0.0468
HMTALPPNVSIDSDERRLLEAIGFDPVDMDVLARDGQFSSVDLFRLLVSLELKGLVENQHGAYQRL	-1.67
HMTALSAREHEVLQLITRGYTADEIAAMLQISRHTALTYVRRIYSKLKVNSKAEAIFEVRQR	-0.215
HMTANPHKPEPLQIDTSDITPGVTVIHKAFGNGTVVSVDNNRILIDFDGIEKKFPFPGAFLYGFLQK	-1.17
HMTAPDDFIRAEVTASGKNGMAVAELSKRVRTRFKSFKVRELGYPHLAGYLADVEGVRVYKQGRENWVAK	-0.241
HMTAQASDIEKVLQVIETLGFRGHTLPGENRTAIGVTGNRGSIDPAHFENLPGVADAIRVTKPY	-0.292
HMTARPTLEKLKYMIHEAGITENSLKVIVATKGHYGLDADISTYSDDFITRWIIPNWTKIVQTISNNK	0.0354
HMTASSYMGMQLGRLEELLKKEVLSLSEKTELKDLISDFDKIPEVVSPKIIGRYLQLKNQHFAKINA	-0.2
HMTAVVPNFKGKLISELSNFVADKNVRYTIIDSIYDPEEKSGIVIKQDPEEKTQVKHNRIIYLYVTST	-1.11
HMTDDFAGRFNELLIHNQETAVTAATRLEVSPAVITKWRQGKSIPSGEYIKRIVETYHVSADYLLGVIDTP	-0.0517
HMTDEEFSRIVKYTAVRYGINLYHKKVMVEGRLSNYLAANGFKSYTEYMDRVEADYTGQEAQNLINILTT	-1.3
HMTDFDPDGREKLIKVQKALHFNNHQLADALRVGQATFSSYIYGRVAAGVPVRVVKAAEDLLKNSKATV	0.146
HMTDFDWSLFTQQLKRFNLFLSYDDREKLQTFQTLYGLNELDLAEYVAKASAGEKNGLNFNYLRQLINKEK	-1.08
HMTDFNTFSDAIIAAVGSRASGLKVVDNAVSVMVDVSGLNEDQRVEIEADVRAAAEHAGAQSVRIMLT	-0.5

Sequence	soluble fraction (log2)
HMTDLALHIGKTLRELRQRRGWSLDKTAQATGVSKAMLGQIERGESSPTVVTLWRISSGLQASFSEFLPP	0.0792
HMTDLDVAVTMTVALEEAVNGATRRVRLPNGKELNVKIPAGVAAGQQIRLKGQGETAPGHRPGDVLITVNI	-0.626
HMTDLQNDIQAFNLKKMSYQHETKKLEEKRNPEKLEKLEQDIQALYLRIMENPNMRAFDSAKQALYLQIM	-1.55
HMTDLVVGLAGITLEPLRPAGKAEFNGSVVDVVSLGDYIEKSTAIQIVEIEGNRIVVHHGED	-1.09
HMTDQYEVQNLVGLTVREAQEKEGVKDIFEVREVGSEFSAEYDAGLIVRQSPDAGEQRKGEGLVIEVWVSA	-0.409
HMTDSLELADLLRRAIITGEYKPRERLVEMELAQKYSVSRTPVREALKHLEALGLVKMERYKGAMVAD	-0.573
HMTDSQLVEAENHVALRQAMAHLGPRERELIGLYYFEEQSQTQIAARFGVSQMQVSRWLTSAVGRIRGQMA	0.131
HMTDWNTVEKETLSAIQKVLSGQASWIDLSPADHSIRHMQHEMVQQAGLISQSYGKEPMRRIRIYQNP	-0.036
HMTEDADIERRLTGILASAGWYRSLAVEVKEGIVYLDGATASGNHRDWAGSLAAKTEGVVAVVNRIEVQP	-0.285
HMTEDIAVRILEFLEDNNGFYALNDKTPSEKIHDLFGVSKKKFKIALGGLYKQRLITVSDAGVTLVK	-0.404
HMTEDTPIIVERVVADIDENVVAIVRKFKDAFKSITAQREIKKKLRSILWVNYQIKDQEVFDKAYQYIEMY	-0.784
HMTEEDVVIFSGLSDRDLKMVQTELANSGIKYTLPTSGTVSVPNSEIARAQMVLAMAGIPRS	-0.0859
HMTEEVIIQNYIGKNFNDVRDELEAKGITVDEPNMKYSDEFKENTIMAQSIKPGQPLKPGGFNSIKFDVS	0.147
HMTEFFNMQDMFYFKLTGDVTSKERRQSLGKILGIGYGNAAQMVSRLNNYGITKEEFTNAINEIEKQMEAG	-0.511
HMTEISGIEKFLASGAINGIGPAMAKKIVAEFGEKTLEIIAKSPNELLKVPGIGKKTAEKISTSYLEQ	0.0637
HMTEKEEERTEDLNYYRLNLISMLKSSYPEYLDDEEFISNRSQEAAEAFEDAVRSGSNYLDASAESNRTLY	-0.717
HMTEKIRLTVDEAGKNQRVDKYISTLLTQFSRSSIKTWIETGNILLDNTRTKPRTLLSPGQVIDIQPRFED	-0.144
HMTEKIVFNIDGQTGRIDKILADFMTGTSRSQIQAWVKDGNLMVNDKAVKSNYKVQDGDLLELTIPEPEQ	-0.378
HMTELIEDYVELIGDLIRHRGEARAADIANRMAVSQATVSKMIRRLNELGLVTSKPYRSLFLTDEGQKMAE	-0.469
HMTELLTPKQRQVFELALREGYYDVPRRTSITEMARLLGVAKSTLSAQMHRMEATVMSTFAEEIRKQ	0.0506
HMTENIPPVKIEEMRQKWQDIVLLHGVTSGRKIKSGQATYIWLYRNDQNWLLTFNSRHLSQPQV	-0.263
HMTEPKILTAEESQRLDLILVQQWPELGRRALRELVQQGGVRINGELALKAGQYVQAGERVEVAVP	-0.879
HMTEQKNNEQQNAVNEKKQALKQLMEKGKEKGSLSYNEVNALLDKLEFTEDQKAIVYDQLHSEDIELQ	0.22
HMTEQLTLVGKTGVTTTDLRPSGKVEVDGKRYDAVADNGAFISKGAHIKVVRYVTGQVYVVPTD	-0.146
HMTERIRLHDDIGSWVEKHGATRSALIPVLQGIQRSYNEISEYAMQEVADRLDIHPVEVYSVVSFYSF	0.103
